Laboratory results as given in patent publication US7638487B2, “Lactoferrin in the reduction of pain” (Agennix, Inc., priority 2002, dated 2009).

Assays:
[1] = test system: radiant heat-induced tail-flick response in mice; test: Tail flick test, radiant heat-induced pain in mice; assay type: in vivo
Description: The tail flick test measures the time (max 15 s) required to elicit a radiant heat-induced tail-flick response in mice. Mice received 1000 mg/kg rhLF or placebo orally 60 minutes prior to test (N=5 per group).

[2] = test system: phenylquinone-induced writhes in mice; test: Phenylquinone (PQ)-induced writhing test in mice; assay type: in vivo
Description: The PQ test measures the number of writhes seen during a 5-10 minute period following IP injection of phenylquinone in mice (2 mg/kg) (N=3). Mice received 1000 mg/kg rhLF or placebo orally 60 minutes prior to test (N=5 per group).

B1: recombinant human lactoferrin (protein, UniProt P02788 20-710, looked up)
Lactotransferrin: GRRRSVQWCAVSQPEATKCFQWQRNMRKVRGPPVSCIKRDSPIQCIQAIAENRADAVTLDGGFIYEAGLAPYKLRPVAAEVYGTERQPRTHYYAVAVVKKGGSFQLNELQGLKSCHTGLRRTAGWNVPIGTLRPFLNWTGPPEPIEAAVARFFSASCVPGADKGQFPNLCRLCAGTGENKCAFSSQEPYFSYSGAFKCLRDGAGDVAFIRESTVFEDLSDEAERDEYELLCPDNTRKPVDKFKDCHLARVPSHAVVARSVNGKEDAIWNLLRQAQEKFGKDKSPKFQLFGSPSGQKDLLFKDSAIGFSRVPPRIDSGLYLGSGYFTAIQNLRKSEEEVAARRARVVWCAVGEQELRKCNQWSGLSEGSVTCSSASTTEDCIALVLKGEADAMSLDGGYVYTAGKCGLVPVLAENYKSQQSSDPDPNCVDRPVEGYLAVAVVRRSDTSLTWNSVKGKKSCHTAVDRTAGWNIPMGLLFNQTGSCKFDEYFSQSCAPGSDPRSNLCALCIGDEQGENKCVPNSNERYYGYTGAFRCLAENAGDVAFVKDVTVLQNTDGNNNEAWAKDLKLADFALLCLDGKRKPVTEARSCHLAMAPNHAVVSRMDKVERLKQVLLHQQAKFGRNGSDCPDKFCLFQSETKNLLFNDNTECLARLHGKTTYEKYLGPQYVAGITNLKKCSTSPLLEACEFLRK
- reduction in pain as measured by number of tail flicks observed ([1]; 1000 mg/kg orally 60 minutes prior to test, vs placebo (FIG. 1)): statistically significant reduction in pain
- difference in tail flick response between placebo and treated groups at time zero ([1]; 1000 mg/kg orally, time zero (FIG. 1)): No difference in response
- reduction in pain as measured by number of writhes observed ([2]; 1000 mg/kg orally 60 minutes prior to test, IP phenylquinone 2 mg/kg, writhes during 5-10 minute period, vs placebo (FIG. 2)): reduction in pain
- difference in writhing response between placebo and treated groups at time zero ([2]; 1000 mg/kg orally, time zero (FIG. 2)): No difference in response
